Square brackets hold non-standard residues; d marks the D form. Ends that are not written are not given here. pT = C[C@@H](OP(=O)(O)O)[C@H](N)C(=O)O
Assays:
BIN1-SH3 domain = target: T1, BIN1-SH3 domain (UniProt O00499 520-593); experiment: NMR titration; 100 µM 15N-labeled BIN1-SH3 domain titrated with aliquots of 4 mM unlabeled peptide; 1H-15N HSQC chemical shift changes fitted to the saturation equation; 20 °C, 50 mM sodium phosphate pH 7.3, 30 mM NaCl, 3 mM DTT, 10% D2O; conditions: both partners purified
T1 construct: SH3 domain of BIN1 (Amphiphysin 2); residue 559 lies in it (isoform 1 numbering); 15N-labelled for NMR; also called 15N-BIN1 SH3
T1 sequence (looked up): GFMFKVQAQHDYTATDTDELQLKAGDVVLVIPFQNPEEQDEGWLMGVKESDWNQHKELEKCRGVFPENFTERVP

[1] = target: T2, human Tau (MAPT transgene, hTau mouse hippocampus) (human, UniProt P10636-8 1-441); experiment: proximity ligation; PLA in fixed hippocampal brain slices of 18-month-old control, hTau and hTau;TgBIN1 mice; primary antibodies BIN1-99D or α-tubulin DM1A (mouse) and Tau (rabbit); PLA spot density per tissue area; conditions: partners not purified
T2 construct: human Tau from the human MAPT transgene Tg(MAPT)8cPdav; source: transgenic mouse (hTau; hTau;TgBIN1; no endogenous murine Mapt), hippocampus, fixed brain slices
T2 sequence (P10636 other isoform, or with tags, fused parts or gaps): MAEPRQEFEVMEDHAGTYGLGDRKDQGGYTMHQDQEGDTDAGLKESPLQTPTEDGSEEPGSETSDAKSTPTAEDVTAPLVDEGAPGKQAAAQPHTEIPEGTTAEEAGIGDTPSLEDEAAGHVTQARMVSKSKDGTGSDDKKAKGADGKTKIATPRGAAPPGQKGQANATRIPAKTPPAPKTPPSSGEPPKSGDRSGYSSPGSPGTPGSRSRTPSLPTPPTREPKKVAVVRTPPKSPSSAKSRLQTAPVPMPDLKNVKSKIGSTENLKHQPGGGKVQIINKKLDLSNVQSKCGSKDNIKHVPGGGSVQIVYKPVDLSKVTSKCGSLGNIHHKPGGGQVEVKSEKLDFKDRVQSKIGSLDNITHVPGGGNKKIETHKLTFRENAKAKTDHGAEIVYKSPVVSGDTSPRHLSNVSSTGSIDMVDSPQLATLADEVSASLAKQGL

Row | Binder | Kd (BIN1-SH3 domain) | fold PLA spot density against control mice [1] | fold PLA spot density against hTau mice [1]
1 | QLRKGPPVPPPPKHTPSKEVKQ (residues 334-355 of the CLAP domain of BIN1 isoform 1 (neuronal isoform); unlabeled peptide, 4 mM stock solution) [CLAP (334-355) peptide] | 71 ± 13 µM | – | –
2 | QLRKGPPVPPPPKH[pT]PSKEVKQ (residues 334-355 of the CLAP domain of BIN1 isoform 1 (neuronal isoform), phosphorylated on T348; unlabeled peptide, 4 mM stock solution; also called phospho-CLAP (334-355)) [phospho-T348 CLAP (334-355) peptide] | 736 ± 70 µM | – | –
3 | human BIN1 (transgene, hTau;TgBIN1 mouse hippocampus) (natural protein, UniProt O00499 1-593, looked up, human BIN1 expressed under the control of its own promoter; endogenous mouse Bin1 is present in the same tissue; also called hBIN1; Amphiphysin 2; source: transgenic mouse (hTau;TgBIN1), hippocampus, fixed brain slices) MAEMGSKGVTAGKIASNVQKKLTRAQEKVLQKLGKADETKDEQFEQCVQNFNKQLTEGTRLQKDLRTYLASVKAMHEASKKLNECLQEVYEPDWPGRDEANKIAENNDLLWMDYHQKLVDQALLTMDTYLGQFPDIKSRIAKRGRKLVDYDSARHHYESLQTAKKKDEAKIAKPVSLLEKAAPQWCQGKLQAHLVAQTNLLRNQAEEELIKAQKVFEEMNVDLQEELPSLWNSRVGFYVNTFQSIAGLEENFHKEMSKLNQNLNDVLVGLEKQHGSNTFTVKAQPSDNAPAKGNKSPSPPDGSPAATPEIRVNHEPEPAGGATPGATLPKSPSQLRKGPPVPPPPKHTPSKEVKQEQILSLFEDTFVPEISVTTPSQFEAPGPFSEQASLLDLDFDPLPPVTSPVKAPTPSGQSIPWDLWEPTESPAGSLPSGEPSAAEGTFAVSWPSQTAEPGPAQPAEASEVAGGTQPAAGAQEPGETAASEAASSSLPAVVVETFPATVNGTVEGGSGAGRLDLPPGFMFKVQAQHDYTATDTDELQLKAGDVVLVIPFQNPEEQDEGWLMGVKESDWNQHKELEKCRGVFPENFTERVP | – | 6.2 fold | 2.7 fold
